The values below come from article PMC3506619, “NADP^+ Binding to the Regulatory Subunit of Methionine Adenosyltransferase II Increases Intersubunit Binding Affinity in the Hetero-Trimer” (PLoS ONE, 2012).

The target in the assay is methionine adenosyltransferase II regulatory β subunit, wild type (human MAT2B, V1 form) (human) (UniProt Q9NZL9). Description: AUC; sedimentation equilibrium of purified β (0.2-0.5 mg/ml), 293 K.

For orientation: stoichiometry N means a count of units in the complex or per binding partner. For “methionine adenosyltransferase II regulatory β subunit, wild type (human MAT2B, V1 form) (from UniProt Q9NZL9 1-334) (natural protein)”, the stoichiometry N was found to be 2.
